This note sets out measurements from article PMC11315690.

pKd: −log10 of the molar value.

The target of this assay is N-terminal structural domain of human Nogo-B protein (hNogo-B-N), residues 1-185, with human Fc fragment (human) (UniProt Q9NQC3). The experiment in a line: SPR.
Sequence of UniProt Q9NQC3 (Q9NQC3 1-185): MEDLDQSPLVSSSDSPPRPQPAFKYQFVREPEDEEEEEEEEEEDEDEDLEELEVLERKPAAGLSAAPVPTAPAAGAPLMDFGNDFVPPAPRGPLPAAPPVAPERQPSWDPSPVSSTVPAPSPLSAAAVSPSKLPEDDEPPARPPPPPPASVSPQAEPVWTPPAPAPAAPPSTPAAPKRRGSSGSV

“human proGCG protein (hproGCG) with C-terminal Strep-tag II (natural protein)” showed a pKd of 5.86.
